Measured values: patent US20150299263A1 (FACTOR THERAPEUTICS, published 2015)
Where no end group is shown, it is not given here.

Key:
[1] = molecular target: T1, Human receptor grade IGF-II (insulin-like growth factor II) (human, UniProt P01344 25-91); test: VN-peptide array, ligand overlay, immunoblot/ECL
T1 construct: Bought recombinant protein, overlaid in solution on the VN-peptide array

[2] = molecular target: T1, Human receptor grade IGF-II …; test: VN-peptide array, ligand overlay, immunoblot/ECL, TotalLab spot intensity
Method: (§1) Methanol or ethanol was used to enhance the rehydration of peptide spots that might be hydrophobic. The peptides spotted onto the membranes were activated by incubating in 3 mL of 70% ethanol for five mins. The membranes were subsequently washed three times, 10 minutes each, in 10 mL TBS (Tris Buffered Saline; 8 g NaCl, 0.2 g KCl and 6.1 g Tris Base into 1000 mL of milliQ water, pH 7) with gentle rocking. Membrane blocking was performed by incubating in 10 mL casein-based membrane blocking buffer (MBS; Sigma-Aldrich) overnight at 4° C. The following day, the membranes were washed twice, 10 minutes each, in 10 mL TBS-T (TBS+0.05% Tween-20; pH 7).
(§2) Ligands used to test binding to VN-peptides were IGFBP-3, IGFBP-5 and IGF-II. For ligand binding, four separate solutions of 1 μg/mL ligand in 10 mL MBS buffer were prepared and each membrane was incubated in one of the four ligand solutions overnight at 4° C., with gentle rocking. […] The following day, the membranes were washed three times, 10 minutes each, in 10 mL TBS-T.
(§3) The binding of the ligands to peptides within the membrane was detected using immunoblotting. The membranes were incubated overnight at 4° C. with 10 mL primary antibody solution (in MBS buffer) targeting the respective ligands. The antibodies used were anti-IGFBP-3 (1:10,000), anti-IGFBP-5 (1:10,000) and anti-IGF-II (1:5000) to detect IGFBP-3, IGFBP-5 and IGF-II respectively. The following day, the membranes were washed three times, 10 minutes each, in 10 mL TBS-T and incubated with 10 mL HRP-conjugated secondary IgG antibody diluted 1:15,000 in MBS buffer for 1 hour at room temperature. Following a further three washes of 10 minutes each, the peptide spots were visualized using ECL. The membranes were exposed onto x-ray films and developed using a film processor (AGFA CP 1000), or were imaged directly using the ChemiDoc™ XRS system (BioRad).

[3] = molecular target: T2, Human receptor grade IGFBP-5 (insulin-like growth factor binding protein 5) (human, UniProt P24593 21-272); test: as above
T2 construct: Bought recombinant protein, overlaid in solution on the VN-peptide array
Method: as §1, §2, §3

[4] = molecular target: T3, Human receptor grade IGFBP-3 (insulin-like growth factor binding protein 3) (human, UniProt P17936 28-291); test: as above
T3 construct: Bought recombinant protein, overlaid in solution on the VN-peptide array
Method: as §1, §2, §3

[5] = molecular target: T2, Human receptor grade IGFBP-5 …; test: VN-peptide array, ligand overlay, immunoblot/ECL
[6] = molecular target: T3, Human receptor grade IGFBP-3 …; test: VN-peptide array, ligand overlay, immunoblot/ECL
[7] = molecular target: T1, Human receptor grade IGF-II …; test: rests on the VN-peptide array
[8] = molecular target: T3, Human receptor grade IGFBP-3 …; test: rests on the VN-peptide array

T1 sequence (P01344 25-91 limits assumed): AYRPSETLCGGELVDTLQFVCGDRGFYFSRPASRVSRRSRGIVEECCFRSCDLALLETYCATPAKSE
T2 sequence (P24593 21-272 limits assumed): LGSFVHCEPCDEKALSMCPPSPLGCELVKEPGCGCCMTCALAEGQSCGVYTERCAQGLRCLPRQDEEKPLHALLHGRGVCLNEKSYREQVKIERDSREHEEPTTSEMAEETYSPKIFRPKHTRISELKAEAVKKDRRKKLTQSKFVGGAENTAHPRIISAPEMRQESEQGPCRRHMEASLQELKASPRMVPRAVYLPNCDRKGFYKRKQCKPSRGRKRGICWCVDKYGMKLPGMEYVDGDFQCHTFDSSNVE
T3 sequence (P17936 28-291 limits assumed): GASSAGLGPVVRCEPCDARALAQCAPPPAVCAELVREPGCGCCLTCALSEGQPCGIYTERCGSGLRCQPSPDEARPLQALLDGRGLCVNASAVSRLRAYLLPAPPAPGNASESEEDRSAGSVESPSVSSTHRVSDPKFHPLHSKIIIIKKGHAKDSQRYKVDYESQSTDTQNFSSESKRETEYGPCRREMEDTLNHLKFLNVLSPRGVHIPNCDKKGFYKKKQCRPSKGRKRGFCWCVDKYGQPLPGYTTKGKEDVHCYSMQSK

Binder	Intensity (against -ve control) [2]	Intensity (against -ve control) [3]	Intensity (against -ve control) [4]	other results
LFSSEESNLGANNYDDYRMDWL (Free synthetic peptide (Mimotopes) in the migration and growth assays; The array carried only its overlapping 16-mers 7A-7C; also called Peptide 7; motif-7 mimic) [VN peptide P7 (LFSSEESNLGANNYDDYRMDWL)]				binding result [1]: binds
GRTSAGTRQPQFISRD (not fully specified (N-terminus); also: free end capped by acetylation, immobilised on cellulose membrane (SPOT synthesis)) [VN-peptide 6A (array grid G12)]	12 fold over negative controls	7 fold over negative controls	2 fold over negative controls	
TRQPQFISRDWHGVPG (not fully specified (N-terminus); also: free end capped by acetylation, immobilised on cellulose membrane (SPOT synthesis)) [VN-peptide 6C (array grid G14)]	1.5 fold over negative controls	5 fold over negative controls	1.5 fold over negative controls	
Ac-RRVDTVDPPYPRSIAQ (also: immobilised on cellulose membrane) [VN-peptide 8D (array grid J7)]	11 fold over negative controls	8 fold over negative controls	4 fold over negative controls	
KTYLFKGSQYWRFEDG (also: capped by acetylation and immobilised on array, free peptide in migration assays, On the array it was immobilised and capped by acetylation; in the migration assays it was a free peptide; also called Pneg; negative peptide) [Non-binding negative control VN-peptide (KTYLFKGSQYWRFEDG)]				binding result [1]: no binding (tested: 1 µg/mL ligand); binding result [5]: no binding (tested: 1 µg/mL ligand); binding result [6]: no binding (tested: 1 µg/mL ligand)
VDAALALPAHSYSGRE (not fully specified (N-terminus); also: free end capped by acetylation, immobilised on cellulose membrane (SPOT synthesis)) [VN-peptide 3A (array grid F5)]	5 fold over negative controls	3 fold over negative controls	1 fold over negative controls	
ALALPAHSYSGRERVY (not fully specified (N-terminus); also: free end capped by acetylation, immobilised on cellulose membrane (SPOT synthesis)) [VN-peptide 3B (array grid F6)]	10 fold over negative controls	3 fold over negative controls	1 fold over negative controls	
Ac-LRTRRVDTVDPPYPRS (also: immobilised on cellulose membrane) [VN-peptide 8C (array grid J6)]	13 fold over negative controls	9 fold over negative controls	10 fold over negative controls	
KYYRVNLRTRRVDTVD (not fully specified (N-terminus); also: free end capped by acetylation, immobilised on cellulose membrane (SPOT synthesis)) [VN-peptide 8A (array grid J4)]	5 fold over negative controls	3 fold over negative controls	5 fold over negative controls	
RVNLRTRRVDTVDPPYPRS (Free synthetic peptide (Mimotopes) in the migration and growth assays; The array carried only its overlapping 16-mers 8A-8D; also called Peptide 8; motif-8 mimic) [VN peptide P8 (RVNLRTRRVDTVDPPYPRS)]				binding result [7]: binds; binding result [8]: binds
SAGTRQPQFISRDWHG (not fully specified (N-terminus); also: free end capped by acetylation, immobilised on cellulose membrane (SPOT synthesis)) [VN-peptide 6B (array grid G13)]	0 fold over negative controls	1.5 fold over negative controls	1 fold over negative controls	
RVNLRTRRVDTVDPPY (not fully specified (N-terminus); also: free end capped by acetylation, immobilised on cellulose membrane (SPOT synthesis)) [VN-peptide 8B (array grid J5)]	17 fold over negative controls	7 fold over negative controls	7 fold over negative controls	

Further lines, with some results ahead:

Intensity (against -ve control) [2]	Intensity (against -ve control) [3]	Intensity (against -ve control) [4]	Binder	other results
	11 fold over negative controls	10 fold over negative controls	CQCDELCSYYQSCCTD (not fully specified (N-terminus); cysteine pairing not given here; also: free end capped by acetylation, immobilised on cellulose membrane (SPOT synthesis)) [VN-peptide 1A (array grid A13)]	binding result [1]: binds
12 fold over negative controls			DELCSYYQSCCTDYTA (not fully specified (N-terminus); cysteine pairing not given here; also: free end capped by acetylation, immobilised on cellulose membrane (SPOT synthesis)) [VN-peptide 1B (array grid A14)]	binding result [5]: binds; binding result [6]: binds
